Assay results published in publication PMC3012076.

Legend:
[1] = target: LigBCen2 (L. interrogans serovar Pomona); assay: SEC; Superose 12 10/300 GL, 50 mM Tris pH 7.0, 50 mM KCl, with and without 3 mM CaCl2; column calibrated with molecular mass markers; self-association, monomer to dimer
[2] = target: Lig A9 (9th tandem Big repeat of LigA) (L. interrogans serovar Pomona); assay: SEC; Superose 12 10/300 GL, 25 mM HEPES pH 7.0, 50 mM KCl, with and without 3 mM CaCl2; column calibrated with molecular mass markers; self-association, monomer to dimer
[3] = target: Lig A10 (10th tandem Big repeat of LigA) (L. interrogans serovar Pomona); assay: as above

LigBCen2 (domain or fragment) gave a stoichiometry N [1] of 2.
“Lig A9 (9th tandem Big repeat of LigA) (domain or fragment)” was tested, and the stoichiometry N [2] was 2.
“Lig A10 (10th tandem Big repeat of LigA) (domain or fragment)” gave a stoichiometry N [3] of 2.
